From patent publication US20240392037A1 (UNIVERSITY OF PITTSBURGH OF THE COMMONWEALTH SYSTEM OF …, published 2024)

Key:
[1] = molecular target: T1, human neutrophil elastase (NE) polypeptide (human, UniProt P08246 28-267, limits assumed); assay: cell-based or functional assay
T1 sequence: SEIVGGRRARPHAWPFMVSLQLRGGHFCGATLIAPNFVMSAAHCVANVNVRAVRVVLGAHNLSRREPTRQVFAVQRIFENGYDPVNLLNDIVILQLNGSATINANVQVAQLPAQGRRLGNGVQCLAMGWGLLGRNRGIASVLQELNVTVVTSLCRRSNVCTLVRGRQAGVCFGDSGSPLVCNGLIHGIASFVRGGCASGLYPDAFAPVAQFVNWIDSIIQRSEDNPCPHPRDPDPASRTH

[2] = molecular target: T1, human neutrophil elastase (NE) …; assay: ELISA, NE coated at 50 ng/well, anti-FLAG-HRP detection
Description: (§1) The NE polypeptide was coated in 96-well microplates at 50 ng/well in PBS at 4° C. over-night and blocked with 5% milk in PBS for 2 hours at room temperature. For the soluble Fab/VH binding assay, the 3-fold serially diluted Fab/VH were added and incubated for 1 hour at 37° C. and further incubated with anti-FLAG M2-peroxidase (HRP) antibody (A8592, Sigma-Aldrich) for another 1 hour. For the IgG₁ binding assay, HRP conjugated goat anti-human IgG₁ Fc (Sigma-Aldrich) was used for detection. Finally, the reaction was developed by 3,3′,5,5′-tetramethylbenzidine (TMB, Sigma-Aldrich) and stopped by TMB stop buffer (ScyTek laboratories). Absorbance was recorded at 450 nm. The experiment was performed in duplicate.

[3] = molecular target: T1, human neutrophil elastase (NE) …; assay: as above; remark: listed apart in the source
Description: (§2) FIG. 12. Specificity of VH/VH-Fc and Fab/IgG1 with recombinant human NE. (A and B) Binding of Fab 1C10 (A) and VH 1D1.43 (B) to rhNE, rhMPO, and PR3 measured by ELISA. (C and D) Binding of IgG1 1C10 (C) and VH-Fc 1D1.43 (D) to rhNE, rhMPO, BSA, and PR3 measured by ELISA. rhNE, rhMPO, BSA, and PR3 were coated in 96-well microplates at 50 ng/well. Experiments were performed in duplicate. Values were reported as the mean±SD.
as §1

[4] = molecular target: T2, Proteinase 3 (UniProt P24158 28-248, limits assumed); assay: ELISA, PR3 coated at 50 ng/well, anti-FLAG-HRP detection
T2 construct: Specificity control, coated at 50 ng/well in ELISA; also called PR3
T2 sequence (looked up): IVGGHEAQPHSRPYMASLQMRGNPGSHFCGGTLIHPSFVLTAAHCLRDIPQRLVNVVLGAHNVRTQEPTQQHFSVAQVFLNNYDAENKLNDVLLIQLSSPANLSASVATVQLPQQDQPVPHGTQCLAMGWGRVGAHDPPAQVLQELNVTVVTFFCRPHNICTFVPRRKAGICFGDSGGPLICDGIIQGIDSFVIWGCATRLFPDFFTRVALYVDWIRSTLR
Description: as §2, §1

[5] = molecular target: T1, human neutrophil elastase (NE) …; assay: BLItz biolayer interferometry, NE-Biotin on streptavidin biosensor
Description: The affinity and avidity of anti-hNE binders were detected by biolayer interferometry BLItz (ForteBio, Menlo Park, CA). Briefly, Dulbecco's PBS (DPBS) was used to establish baseline for 30 seconds, and streptavidin biosensor (ForteBio) was coated with 16.7 μg/mL recombinant NE-Biotin for 2 minutes. […] Antigen coated biosensors with PBS served as reference controls. The dissociation was monitored in DPBS for 4 minutes.

[6] = molecular target: T3, recombinant human myeloperoxidase protein (human, UniProt P05164 49-745, limits assumed); assay: ELISA, rhMPO coated at 50 ng/well, anti-FLAG-HRP detection
T3 construct: Specificity control, coated at 50 ng/well in ELISA; also called rhMPO
T3 sequence (looked up): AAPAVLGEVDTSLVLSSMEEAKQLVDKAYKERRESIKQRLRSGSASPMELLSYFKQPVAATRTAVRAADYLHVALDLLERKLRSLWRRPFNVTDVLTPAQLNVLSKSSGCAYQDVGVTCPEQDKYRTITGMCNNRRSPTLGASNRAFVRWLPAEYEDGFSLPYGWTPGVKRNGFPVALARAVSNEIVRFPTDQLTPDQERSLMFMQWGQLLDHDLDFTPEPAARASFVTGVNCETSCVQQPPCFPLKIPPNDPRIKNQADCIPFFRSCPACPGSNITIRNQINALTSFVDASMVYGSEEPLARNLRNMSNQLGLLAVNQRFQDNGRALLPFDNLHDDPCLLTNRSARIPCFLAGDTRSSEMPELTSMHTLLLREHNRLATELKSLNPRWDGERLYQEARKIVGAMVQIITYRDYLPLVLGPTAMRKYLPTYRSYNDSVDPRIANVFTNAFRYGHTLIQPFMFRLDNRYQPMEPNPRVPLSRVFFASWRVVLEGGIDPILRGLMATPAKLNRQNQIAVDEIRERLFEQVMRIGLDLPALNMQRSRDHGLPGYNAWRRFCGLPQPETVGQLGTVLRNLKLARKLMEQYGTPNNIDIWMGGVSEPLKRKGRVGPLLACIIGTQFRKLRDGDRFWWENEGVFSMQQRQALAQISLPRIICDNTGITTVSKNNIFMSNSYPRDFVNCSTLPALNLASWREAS
Description: as §2, §1

[7] = molecular target: T1, human neutrophil elastase (NE) …; assay: ELISA, NE coated at 50 ng/well, anti-human IgG1 Fc-HRP detection
Description: as §1

[8] = molecular target: T4, BSA (UniProt P02769 25-607); assay: ELISA, BSA coated at 50 ng/well, HRP anti-human IgG1 Fc detection
Description: as §2, §1

[9] = molecular target: T2, Proteinase 3; assay: ELISA, PR3 coated at 50 ng/well, HRP anti-human IgG1 Fc detection
[10] = molecular target: T3, recombinant human myeloperoxidase …; assay: ELISA, rhMPO coated at 50 ng/well, HRP anti-human IgG1 Fc detection
[11] = molecular target: T1, human neutrophil elastase (NE) …; assay: ELISA, NE coated at 50 ng/well
Description: as §2, §1

[12] = molecular target: T4, BSA; assay: ELISA, BSA coated at 50 ng/well
Description: as §2, §1

[13] = molecular target: T2, Proteinase 3; assay: ELISA, PR3 coated at 50 ng/well
Description: as §2, §1

[14] = molecular target: T3, recombinant human myeloperoxidase …; assay: ELISA, rhMPO coated at 50 ng/well
Description: as §2, §1

[15] = molecular target: T2, Proteinase 3; assay: ELISA, PR3 coated at 50 ng/well, anti-FLAG-HRP detection; remark: listed apart in the source
[16] = molecular target: T3, recombinant human myeloperoxidase …; assay: ELISA, rhMPO coated at 50 ng/well, anti-FLAG-HRP detection; remark: listed apart in the source

T4 sequence (P02769 25-607 limits assumed): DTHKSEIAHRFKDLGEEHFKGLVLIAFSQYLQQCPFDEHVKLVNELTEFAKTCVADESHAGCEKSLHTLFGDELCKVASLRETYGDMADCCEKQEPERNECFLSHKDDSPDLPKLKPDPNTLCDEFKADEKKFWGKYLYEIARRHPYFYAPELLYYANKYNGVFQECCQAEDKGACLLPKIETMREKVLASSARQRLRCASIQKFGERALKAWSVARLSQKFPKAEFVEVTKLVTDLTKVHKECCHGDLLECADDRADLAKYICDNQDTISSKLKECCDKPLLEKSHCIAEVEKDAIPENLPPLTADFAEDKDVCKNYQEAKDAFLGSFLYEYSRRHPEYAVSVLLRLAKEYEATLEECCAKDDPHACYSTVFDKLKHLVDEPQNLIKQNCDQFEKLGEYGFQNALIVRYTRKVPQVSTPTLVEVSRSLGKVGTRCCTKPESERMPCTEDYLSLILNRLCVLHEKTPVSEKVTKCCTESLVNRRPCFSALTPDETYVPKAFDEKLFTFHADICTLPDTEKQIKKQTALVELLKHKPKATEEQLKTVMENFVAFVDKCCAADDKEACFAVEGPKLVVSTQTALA

B1: Fab 1C10 (Fab, V domains shown)
VH: QVQLVESGGGLVKPGGSLRLSCAASGFTFSDYYMSWIRQAPGKGLEWVSYISSSGSTIYYADSVKGRFTISRDNAKNSLYLQMNSLRAEDTAVYYCARVGGDFWSGFLMDVWGQGTTVTVSS
VL: DIQMTQSPSSLSASVGDRVTITCRASQSISSYLNWYQQKPGKAPKLLIYAASSLQSGVPSRFSGSGSGTDFTLTISSLQPEDVAVYYCMQALQTPLTFGQGTKLEIKR
notes: Human Fab from a phage library; also called Clone #1; #1 (Fab)
For B1, the “IC50 of inhibition of neutrophil elastase enzyme activity” value [1] was about 5000 nM, the EC50 [2] was 16.3 nM and the “EC50 (read off the curve)” value [3] was about 3 nM. The binding result [4] was “no binding (tested: about 7,000 nM)”, the Kd [5] was 8.5 nM and the binding result [6] was “no binding (tested: about 7,000 nM)”.

B2: IgG1 1C10 (antibody, V domains shown)
VH: B1 VH
VL: B1 VL
notes: Fab 1C10 converted to a bivalent human IgG1 (heavy and light chains re-cloned into the pcDNA-IgG1 vector, expressed in Expi293 cells); also called IgG 1C10; 1C10 IgG1
For B2, the “IC50 of inhibition of neutrophil elastase enzyme activity” value [1] was 1800 nM, the EC50 [7] was 0.4 nM and the Kd [5] was 0.14 nM. B2: no binding (tested: about 200 nM) [8]; no binding (tested: about 200 nM) [9]; no binding (tested: about 200 nM) [10].

B3: VH-Fc 1D1.43 (Fc fusion)
chain: EVQLVESGGGVVQPGRSLRLSCAASGFTFSNYAMHWVRQAPGKGLEWVAVISYDGSNKYYADSVKGRFTISRDDSTNTLYLQMNNLRAEDTAVYYCAKDLPWEWELDYWGQGTLVTVSS
notes: VH 1D1.43 converted to a bivalent antibody by fusion to human IgG1 Fc; also called VH-Fc ID1.43; not shown: human IgG1 Fc
In the case of B3, the “IC50 of inhibition of neutrophil elastase enzyme activity; fold change against the VH form (VH 1D1.43)” value [1] is reported as 10 fold, the “EC50 (read off the curve)” value [11] is reported as about 0.7 nM and the binding result [12] is reported as “no binding (tested: about 1,000 nM)”. For the same binder, the binding result [13] was “no binding (tested: about 1,000 nM)”, the binding result [14] was “no binding (tested: about 1,000 nM)” and the EC50 [7] was 0.66 nM.

B4: VH 1D1.43 (other)
VH: B3 chain
notes: Expressed in E. coli, purified on Ni-NTA and detected with anti-FLAG antibody; also called Clone #2; #2 (VH)
With B4 the EC50 [2] was 4.3 nM, the “EC50 (read off the curve)” value [3] was about 10 nM and the binding result [15] was “no binding (tested: about 30,000 nM)”. B4: no binding (tested: about 30,000 nM) [16].
